B1: SEQ ID NO 17 (peptide)
peptide: LEAKIWVVPAPS
notes: Selected from random M13KE phage-display libraries

Biological target: T1, HGPRBMY3 (human, UniProt Q9H1C0 1-372)
T1 construct: on CHO-NFAT/Galpha15 cells for the reporter assay; also called GPCR19; GPR92; not shown: its amino
Test: cell-based phage-display panning on CHO-K1 cells transfected with HGPRBMY3; sequencing of eluted phage
Experimental: On the day of panning, growth medium was discarded and cells were washed with 10 ml PBS by allowing the buffer to flow over the cells. The PBS was removed and 10 ml Tris-EDTA detaching buffer (Gibco Cat. # 13150-016; no trypsin) was added for 2 min. Plates were tapped and/or pipetted up and down to detach cells. This was done quickly to minimize the exposure of the cells to this reagent. Cells were pelleted by centrifugation at 3K, and then washed with 20 ml PBS. Cells were resuspended cells in PBS with 2% milk blocking agent plus protease inhibitor (EDTA-free; Roche Cat. # 1 873 580). For each library, cell suspensions of ˜500 μl were used. Cells were blocked for 30-60 min with gentle rocking at room temperature. The integrin-coated wells were washed 3×in PBST, then blocked with 2% BSA in PBS for 30 min or more. To preadsorb against integrin, input phage was added to the integrin-coated wells, and incubated for 30 min or more.
At this stage, the blocked parental cells were divided into the required number of aliquots (500 μl aliquot/library). The phage supernatants were added from the integrin-preadsorption step. Preadsorption against the parental cells was carried out for 30 min or more with gentle rocking. The blocked transfected cells were divided into the required number of aliquots (500 μl aliquot per library). The transfected cells were pelleted, and the supernatant was discarded. The phage supernatants from the two preadsorption steps were added, and cells were incubated with gentle rocking for 2 h or more. Cells were washed 6-8× with PBST at 5 min intervals. Each wash was performed by gently pipetting the cells up and down, and cells were centrifuged at low speed. To recover binding phage from the washed cell pellets, 500 μl 6M urea, pH 3.0 was added for 15 min. This was neutralized with 10 μl 2 M Tris (not adjusted for pH). The phage in the eluate were titered and arnplified by standard procedures (NEB protocol for PhD phage libraries). In some cases, the eluate was viscous due to the presence of chromosomal DNA.
Standard procedures were used. Phage in eluates were infected into E. coli host strain ER2738 (New England Biolabs) for all M13KE-based libraries, and cells were plated for plaques. Colonies were grown in liquid medium and analyzed by standard sequencing procedures.

T1 sequence (Q9H1C0 whole entry): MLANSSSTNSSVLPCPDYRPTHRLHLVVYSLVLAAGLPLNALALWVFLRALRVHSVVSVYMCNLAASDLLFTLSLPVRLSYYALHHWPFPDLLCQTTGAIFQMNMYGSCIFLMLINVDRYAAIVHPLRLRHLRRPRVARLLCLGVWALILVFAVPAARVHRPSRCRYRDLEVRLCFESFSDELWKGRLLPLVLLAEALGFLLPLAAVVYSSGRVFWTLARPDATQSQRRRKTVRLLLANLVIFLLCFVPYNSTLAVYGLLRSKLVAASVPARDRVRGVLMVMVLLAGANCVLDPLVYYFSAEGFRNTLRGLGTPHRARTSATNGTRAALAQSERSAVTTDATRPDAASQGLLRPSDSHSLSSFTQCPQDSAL

Row | Binder | binding result
1 | B1 | binds
2 | NHDNTKKVWILA [SEQ ID NO 26] | binds
3 | KLWILADNFTNR [SEQ ID NO 35] | binds
4 | INSPHELKKLWLLPP [SEQ ID NO 36] | binds
5 | FPHKLWVLPVKT [SEQ ID NO 37] | binds
6 | KLWTIPSNDYPP [SEQ ID NO 38] | binds
7 | KLWIPHTSQPFL [SEQ ID NO 40] | binds
8 | KLWDITAPLPKP [SEQ ID NO 41] | binds
9 | NAKLWQIPAIPH [SEQ ID NO 42] | binds
10 | KLWVPQNRPELV [SEQ ID NO 43] | binds
11 | TGQTKIWYPHST [SEQ ID NO 18] | binds
12 | TSTPHRVWQLPV [SEQ ID NO 45] | binds
13 | TTPHRVWNLPLEAQQ [SEQ ID NO 46] | binds
14 | VYSKVWLLPAGQ [SEQ ID NO 19] | binds
15 | HLKVWEVRSPGP [SEQ ID NO 20] | binds
16 | NAKVWTVPSKPP [SEQ ID NO 21] | binds
17 | KVWIPTSTWLQT [SEQ ID NO 22] | binds
18 | KVWSLDISAPQH [SEQ ID NO 23] | binds
19 | ADVLHATPSEKVWLL [SEQ ID NO 24] | binds
20 | KVVDSNHKVWLVSQT [SEQ ID NO 25] | binds

Reference: patent US20040209808A1 (published 2004)
